Measured values taken from US20070148164A1 (Biogen, published 2007).

What follows are binders tested against T1, biotinylated human FcRn-huM4Fc fusion protein (human, biotinylated with BiotinXX sulfosuccinimidyl ester (sites not given)) (assay: AlphaScreen competition at pH 6.0: antibody in solution against human IgG1 acceptor beads for bhFcRnFc on streptavidin donor beads; plotted is IC50 (ug/ml by paragraph 723, no unit on the sheet)).
T1 construct: also called bhFcRnFc; biotinylated Fc/FcRn fusion protein

Row | Binder | binding result
1 | A287E (antibody, EU numbering, EU N297 = residue 300 of the chain; the sheets number them 2 and 4; also called huCBE11 altered antibody with mutation A287E; copies: 2 + 2) heavy: not shown light: DIQMTQSPSSLSASVGDRVTITCKAGQDIKSYLSWYQQKPGKAPKLLIYYATRLADGVPSRFSGSGSGTDYTLTISSLQPEDFATYYCLQHGESPWTFGGGTKLEIKRTVAAPSVFIFPPSDEQLKSGTASVVCLLNNFYPREAKVQWKVDNALQSGNSQESVTEQDSKDSTYSLSSTLTLSKADYEKHKVYACEVTHQGLSSPVTKSFNRGEC | binds
2 | K288D (antibody, human IgG1, kappa, EU numbering, EU N297 = residue 300 of the chain; the sheets number them 2 and 4; also called huCBE11 altered antibody with mutation K288D; copies: 2 + 2) heavy: not shown light: DIQMTQSPSSLSASVGDRVTITCKAGQDIKSYLSWYQQKPGKAPKLLIYYATRLADGVPSRFSGSGSGTDYTLTISSLQPEDFATYYCLQHGESPWTFGGGTKLEIKRTVAAPSVFIFPPSDEQLKSGTASVVCLLNNFYPREAKVQWKVDNALQSGNSQESVTEQDSKDSTYSLSSTLTLSKADYEKHKVYACEVTHQGLSSPVTKSFNRGEC | binds
3 | K288E (antibody, human IgG1, kappa, EU numbering, EU N297 = residue 300 of the chain; the sheets number them 2 and 4; also called huCBE11 altered antibody with mutation K288E; copies: 2 + 2) heavy: not shown light: DIQMTQSPSSLSASVGDRVTITCKAGQDIKSYLSWYQQKPGKAPKLLIYYATRLADGVPSRFSGSGSGTDYTLTISSLQPEDFATYYCLQHGESPWTFGGGTKLEIKRTVAAPSVFIFPPSDEQLKSGTASVVCLLNNFYPREAKVQWKVDNALQSGNSQESVTEQDSKDSTYSLSSTLTLSKADYEKHKVYACEVTHQGLSSPVTKSFNRGEC | binds
4 | K288M (antibody, EU numbering, EU N297 = residue 300 of the chain; the sheets number them 2 and 4; also called huCBE11 altered antibody with mutation K288M; copies: 2 + 2) heavy: not shown light: DIQMTQSPSSLSASVGDRVTITCKAGQDIKSYLSWYQQKPGKAPKLLIYYATRLADGVPSRFSGSGSGTDYTLTISSLQPEDFATYYCLQHGESPWTFGGGTKLEIKRTVAAPSVFIFPPSDEQLKSGTASVVCLLNNFYPREAKVQWKVDNALQSGNSQESVTEQDSKDSTYSLSSTLTLSKADYEKHKVYACEVTHQGLSSPVTKSFNRGEC | binds
5 | R255L (antibody, EU numbering, EU N297 = residue 300 of the chain; the sheets number them 2 and 4; also called huCBE11 altered antibody with mutation R255L; copies: 2 + 2) heavy: not shown light: DIQMTQSPSSLSASVGDRVTITCKAGQDIKSYLSWYQQKPGKAPKLLIYYATRLADGVPSRFSGSGSGTDYTLTISSLQPEDFATYYCLQHGESPWTFGGGTKLEIKRTVAAPSVFIFPPSDEQLKSGTASVVCLLNNFYPREAKVQWKVDNALQSGNSQESVTEQDSKDSTYSLSSTLTLSKADYEKHKVYACEVTHQGLSSPVTKSFNRGEC | binds

The binders below were run against T1, biotinylated human FcRn-huM4Fc fusion … (assay: FRET competition at pH 5.8: unlabelled competitor mAb against Eu-labelled h5C8 for bhFcRnFc; plotted is mutant IC50/wt IC50).

Row | Binder | binding result
6 | A287D (antibody, EU numbering, EU N297 = residue 300 of the chain; the sheets number them 2 and 4; also called huCBE11 altered antibody with mutation A287D; copies: 2 + 2) heavy: not shown light: DIQMTQSPSSLSASVGDRVTITCKAGQDIKSYLSWYQQKPGKAPKLLIYYATRLADGVPSRFSGSGSGTDYTLTISSLQPEDFATYYCLQHGESPWTFGGGTKLEIKRTVAAPSVFIFPPSDEQLKSGTASVVCLLNNFYPREAKVQWKVDNALQSGNSQESVTEQDSKDSTYSLSSTLTLSKADYEKHKVYACEVTHQGLSSPVTKSFNRGEC | binds
7 | D376N (antibody, EU numbering, EU N297 = residue 300 of the chain; the sheets number them 2 and 4; also called huCBE11 altered antibody with mutation D376N; copies: 2 + 2) heavy: not shown light: DIQMTQSPSSLSASVGDRVTITCKAGQDIKSYLSWYQQKPGKAPKLLIYYATRLADGVPSRFSGSGSGTDYTLTISSLQPEDFATYYCLQHGESPWTFGGGTKLEIKRTVAAPSVFIFPPSDEQLKSGTASVVCLLNNFYPREAKVQWKVDNALQSGNSQESVTEQDSKDSTYSLSSTLTLSKADYEKHKVYACEVTHQGLSSPVTKSFNRGEC | binds
8 | E345Q (antibody, human IgG1, kappa, EU numbering, EU N297 = residue 300 of the chain; the sheets number them 2 and 4; also called huCBE11 altered antibody with mutation E345Q; copies: 2 + 2) heavy: not shown light: DIQMTQSPSSLSASVGDRVTITCKAGQDIKSYLSWYQQKPGKAPKLLIYYATRLADGVPSRFSGSGSGTDYTLTISSLQPEDFATYYCLQHGESPWTFGGGTKLEIKRTVAAPSVFIFPPSDEQLKSGTASVVCLLNNFYPREAKVQWKVDNALQSGNSQESVTEQDSKDSTYSLSSTLTLSKADYEKHKVYACEVTHQGLSSPVTKSFNRGEC | binds
9 | E345R (antibody, EU numbering, EU N297 = residue 300 of the chain; the sheets number them 2 and 4; also called huCBE11 altered antibody with mutation E345R; copies: 2 + 2) heavy: not shown light: DIQMTQSPSSLSASVGDRVTITCKAGQDIKSYLSWYQQKPGKAPKLLIYYATRLADGVPSRFSGSGSGTDYTLTISSLQPEDFATYYCLQHGESPWTFGGGTKLEIKRTVAAPSVFIFPPSDEQLKSGTASVVCLLNNFYPREAKVQWKVDNALQSGNSQESVTEQDSKDSTYSLSSTLTLSKADYEKHKVYACEVTHQGLSSPVTKSFNRGEC | binds
10 | H285D (antibody, human IgG1, kappa, EU numbering, EU N297 = residue 300 of the chain; the sheets number them 2 and 4; also called huCBE11 altered antibody with mutation H285D; copies: 2 + 2) heavy: not shown light: DIQMTQSPSSLSASVGDRVTITCKAGQDIKSYLSWYQQKPGKAPKLLIYYATRLADGVPSRFSGSGSGTDYTLTISSLQPEDFATYYCLQHGESPWTFGGGTKLEIKRTVAAPSVFIFPPSDEQLKSGTASVVCLLNNFYPREAKVQWKVDNALQSGNSQESVTEQDSKDSTYSLSSTLTLSKADYEKHKVYACEVTHQGLSSPVTKSFNRGEC | binds
11 | H285F (antibody, EU numbering, EU N297 = residue 300 of the chain; the sheets number them 2 and 4; also called huCBE11 altered antibody with mutation H285F; copies: 2 + 2) heavy: not shown light: DIQMTQSPSSLSASVGDRVTITCKAGQDIKSYLSWYQQKPGKAPKLLIYYATRLADGVPSRFSGSGSGTDYTLTISSLQPEDFATYYCLQHGESPWTFGGGTKLEIKRTVAAPSVFIFPPSDEQLKSGTASVVCLLNNFYPREAKVQWKVDNALQSGNSQESVTEQDSKDSTYSLSSTLTLSKADYEKHKVYACEVTHQGLSSPVTKSFNRGEC | binds
12 | L314K (antibody, EU numbering, EU N297 = residue 300 of the chain; the sheets number them 2 and 4; also called huCBE11 altered antibody with mutation L314K; copies: 2 + 2) heavy: not shown light: DIQMTQSPSSLSASVGDRVTITCKAGQDIKSYLSWYQQKPGKAPKLLIYYATRLADGVPSRFSGSGSGTDYTLTISSLQPEDFATYYCLQHGESPWTFGGGTKLEIKRTVAAPSVFIFPPSDEQLKSGTASVVCLLNNFYPREAKVQWKVDNALQSGNSQESVTEQDSKDSTYSLSSTLTLSKADYEKHKVYACEVTHQGLSSPVTKSFNRGEC | binds
13 | R255M (antibody, EU numbering, EU N297 = residue 300 of the chain; the sheets number them 2 and 4; also called huCBE11 altered antibody with mutation R255M; copies: 2 + 2) heavy: not shown light: DIQMTQSPSSLSASVGDRVTITCKAGQDIKSYLSWYQQKPGKAPKLLIYYATRLADGVPSRFSGSGSGTDYTLTISSLQPEDFATYYCLQHGESPWTFGGGTKLEIKRTVAAPSVFIFPPSDEQLKSGTASVVCLLNNFYPREAKVQWKVDNALQSGNSQESVTEQDSKDSTYSLSSTLTLSKADYEKHKVYACEVTHQGLSSPVTKSFNRGEC | binds
14 | S304E (antibody, human IgG1, kappa, EU numbering, EU N297 = residue 300 of the chain; the sheets number them 2 and 4; also called huCBE11 altered antibody with mutation S304E; copies: 2 + 2) heavy: not shown light: DIQMTQSPSSLSASVGDRVTITCKAGQDIKSYLSWYQQKPGKAPKLLIYYATRLADGVPSRFSGSGSGTDYTLTISSLQPEDFATYYCLQHGESPWTFGGGTKLEIKRTVAAPSVFIFPPSDEQLKSGTASVVCLLNNFYPREAKVQWKVDNALQSGNSQESVTEQDSKDSTYSLSSTLTLSKADYEKHKVYACEVTHQGLSSPVTKSFNRGEC | binds
15 | V279E (antibody, human IgG1, kappa, EU numbering, EU N297 = residue 300 of the chain; the sheets number them 2 and 4; also called huCBE11 altered antibody with mutation V279E; copies: 2 + 2) heavy: not shown light: DIQMTQSPSSLSASVGDRVTITCKAGQDIKSYLSWYQQKPGKAPKLLIYYATRLADGVPSRFSGSGSGTDYTLTISSLQPEDFATYYCLQHGESPWTFGGGTKLEIKRTVAAPSVFIFPPSDEQLKSGTASVVCLLNNFYPREAKVQWKVDNALQSGNSQESVTEQDSKDSTYSLSSTLTLSKADYEKHKVYACEVTHQGLSSPVTKSFNRGEC | binds
16 | V284D (antibody, human IgG1, kappa, EU numbering, EU N297 = residue 300 of the chain; the sheets number them 2 and 4; also called huCBE11 altered antibody with mutation V284D; copies: 2 + 2) heavy: not shown light: DIQMTQSPSSLSASVGDRVTITCKAGQDIKSYLSWYQQKPGKAPKLLIYYATRLADGVPSRFSGSGSGTDYTLTISSLQPEDFATYYCLQHGESPWTFGGGTKLEIKRTVAAPSVFIFPPSDEQLKSGTASVVCLLNNFYPREAKVQWKVDNALQSGNSQESVTEQDSKDSTYSLSSTLTLSKADYEKHKVYACEVTHQGLSSPVTKSFNRGEC | binds
17 | huCBE11 altered antibody with mutation K290D (antibody, human IgG1, kappa, Position is in EU numbering) heavy: not shown light: DIQMTQSPSSLSASVGDRVTITCKAGQDIKSYLSWYQQKPGKAPKLLIYYATRLADGVPSRFSGSGSGTDYTLTISSLQPEDFATYYCLQHGESPWTFGGGTKLEIKRTVAAPSVFIFPPSDEQLKSGTASVVCLLNNFYPREAKVQWKVDNALQSGNSQESVTEQDSKDSTYSLSSTLTLSKADYEKHKVYACEVTHQGLSSPVTKSFNRGEC | binds
18 | huCBE11 altered antibody with mutation M252S (antibody, human IgG1, kappa, Position is in EU numbering) heavy: not shown light: DIQMTQSPSSLSASVGDRVTITCKAGQDIKSYLSWYQQKPGKAPKLLIYYATRLADGVPSRFSGSGSGTDYTLTISSLQPEDFATYYCLQHGESPWTFGGGTKLEIKRTVAAPSVFIFPPSDEQLKSGTASVVCLLNNFYPREAKVQWKVDNALQSGNSQESVTEQDSKDSTYSLSSTLTLSKADYEKHKVYACEVTHQGLSSPVTKSFNRGEC | binds
19 | huCBE11 altered antibody with mutation M252T (antibody, human IgG1, kappa, Position is in EU numbering) heavy: not shown light: DIQMTQSPSSLSASVGDRVTITCKAGQDIKSYLSWYQQKPGKAPKLLIYYATRLADGVPSRFSGSGSGTDYTLTISSLQPEDFATYYCLQHGESPWTFGGGTKLEIKRTVAAPSVFIFPPSDEQLKSGTASVVCLLNNFYPREAKVQWKVDNALQSGNSQESVTEQDSKDSTYSLSSTLTLSKADYEKHKVYACEVTHQGLSSPVTKSFNRGEC | binds
20 | huCBE11 altered antibody with mutation S304D (antibody, human IgG1, kappa, Position is in EU numbering) heavy: not shown light: DIQMTQSPSSLSASVGDRVTITCKAGQDIKSYLSWYQQKPGKAPKLLIYYATRLADGVPSRFSGSGSGTDYTLTISSLQPEDFATYYCLQHGESPWTFGGGTKLEIKRTVAAPSVFIFPPSDEQLKSGTASVVCLLNNFYPREAKVQWKVDNALQSGNSQESVTEQDSKDSTYSLSSTLTLSKADYEKHKVYACEVTHQGLSSPVTKSFNRGEC | binds
21 | huCBE11 altered antibody with mutation V282E (antibody, human IgG1, kappa, Position is in EU numbering) heavy: not shown light: DIQMTQSPSSLSASVGDRVTITCKAGQDIKSYLSWYQQKPGKAPKLLIYYATRLADGVPSRFSGSGSGTDYTLTISSLQPEDFATYYCLQHGESPWTFGGGTKLEIKRTVAAPSVFIFPPSDEQLKSGTASVVCLLNNFYPREAKVQWKVDNALQSGNSQESVTEQDSKDSTYSLSSTLTLSKADYEKHKVYACEVTHQGLSSPVTKSFNRGEC | binds
